Article PMC8363014, “OsMADS23 phosphorylated by SAPK9 confers drought and salt tolerance by regulating ABA biosynthesis in rice”

B1: OsNCED2-b (probe 2) (dsDNA)
DNA 1: GGGGTTGTCTATGTAACATATAATTGGATATATATTCATTCC
DNA 2: GGAATGAATATATATCCAATTATATGTTACATAGACAACCCC
modifications: 3' biotin
B2: OsNCED2-c (probe 3) (dsDNA)
DNA 1: GGGGCTAATAATTAGCCTTCCAAAATTTTGCTATTTATAAGTA
DNA 2: TACTTATAAATAGCAAAATTTTGGAAGGCTAATTATTAGCCCC
modifications: 3' biotin
B3: OsNCED2-a (probe 1) (dsDNA)
DNA 1: AACATTCTATCCCATAAAATTGTGTTTTGTTGCAAATGTCC
DNA 2: GGACATTTGCAACAAAACACAATTTTATGGGATAGAATGTT
modifications: 3' biotin

These binders were tested against OsMADS23 (Oryza sativa (rice), UniProt Q6VAM4 1-159) (assay: EMSA; signal reduced by excess unlabeled probe; LightShift Chemiluminescent EMSA kit (Thermo), manufacturer's instructions; buffer, salt, pH and temperature not stated). Settings: protein: recombinant; tags: His, trigger factor (pCold-TF); chain copies: 2; label: biotin; blunt.
OsMADS23, sequence (Q6VAM4 whole entry): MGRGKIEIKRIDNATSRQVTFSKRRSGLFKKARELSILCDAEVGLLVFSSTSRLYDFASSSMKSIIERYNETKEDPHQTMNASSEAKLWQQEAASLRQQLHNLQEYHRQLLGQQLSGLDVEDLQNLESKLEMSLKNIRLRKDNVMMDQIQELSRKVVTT

Binding result, binds:
B1
B2
B3
